Here are results for one protein from FireProtDB (doi:10.1002/prot.340090203).

The term Tm denotes the temperature at which the thermal transition is half complete.

The conditions of this data set: Escherichia coli (strain K12), reversible: yes, whole UniProt chain shown; for unfolding free energy: pH 7, 25 °C, GdnHCl, CD, Potassium phosphate 10 mM.
[1] abbreviates: pH 9, Thermal, DSC, Sodium tetraborate 1 mM.

B1: Tryptophan synthase alpha chain wild type, P0A877 (protein)
chain: MERYESLFAQLKERKEGAFVPFVTLGDPGIEQSLKIIDTLIEAGADALELGIPFSDPLADGPTIQNATLRAFAAGVTPAQCFEMLALIRQKHPTIPIGLLMYANLVFNKGIDEFYAQCEKVGVDSVLVADVPVEESAPFRQAALRHNVAPIFICPPNADDDLLRQIASYGRGYTYLLSRAGVTGAENRAALPLNHLVAKLKEYNAAPPLQGFGISAPDQVKAAIDAGAAGAISGSAIVKIIEQHINEPEKMLAALKVFVQPMKAATRS
Regarding B1, the unfolding free energy is 8.8 kcal/mol. The unfolding free energy (transition: 3) was 4.6 kcal/mol. Besides, under setting [1], the Tm came out at 54.1 °C, the “heat capacity change of unfolding” value came out at 4.6 kcal/mol/K and the “unfolding enthalpy (calorimetric)” value is 120 kcal/mol.
